# In patent US8796227B2, “Peptides for inhibiting chemokine binding to chemokine receptors” (Biokine Therapeutics Ltd., priority 2002, dated 2014):
# Entries after “also recorded” stand apart in the source; their conditions may differ. Bridges are numbered along the chain shown (N, C = ends). Where no end group is shown, it is not given here.
# Tests used:
# [1] = target: T1, Human MCP-1 (Homo sapiens, UniProt P13500); assay: ELISA analysis of the synthetic chemokine-binding peptide; conditions: chemokine-coated wells, specific binding = at least two fold of binding to control proteins (BSA, Actin, Fibronectin)
# T1 construct: purchased PeproTech, Inc. 300-04
# T1 sequence (P13500 24-99): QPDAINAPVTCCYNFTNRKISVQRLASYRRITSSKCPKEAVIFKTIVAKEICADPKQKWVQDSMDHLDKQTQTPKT
# Method: (§1) Recombinant chemokines were ordered from PeproTech, Inc. (Rocky Hill, N.J., USA). Human SDF-1α (Cat. No. 300-28A), human MIG (Cat. No. 300-26) and human IL-8, (72 amino acids) (Cat. No. 200-08M), belong to the alpha-chemokines (C-X-C) family. Human MCP-1 (MCAF) (Cat. No. 300-04) and human Eotaxin (Cat No. 300-21) belong to the beta-chemokines (C-C family). All chemokines were prepared according to the company recommendations.
# (§2) Peptides were synthesized in the Weizmann Institute of Science, Rehovot, Israel, in order to perform tests for characterization of their influence on the biological activity of the chemokines. The format of the various synthesized peptides was as follows: The cyclic peptides, ACX7CGGGSK-biotin-G and the linear peptides, X12GGGSK-biotin-G. The peptides were biotinylated on their C-termini; the biotin will serve as a detector during the following experiments. Each synthetic peptide was dissolved to concentration of 1 mg/ml (˜0.6 mM) in 4% DMSO (Dimethyl Sulphoxide, Sigma, Cat. # D-2650).
# (§3) NUNC-Immuno™ MaxiSorp™ plates (Cat. No. 4-42404) were coated with the appropriate chemokine (0.1 ml/well, 0.1-1.0 μg/ml in 0.1 M NaHCO3, pH 8.6), overnight at 4° C. The plates were then blocked with 0.2 ml/well of blocking buffer (5 mg/ml BSA in 0.1 NaHCO3). Control wells were treated with blocking buffer alone, with no addition of target protein (chemokine). The plates were washed 6 times with PBST (0.1% Tween 20 in PBS), followed by incubation for 45 minutes at room temperature with 10-fold serial dilutions of individual synthetic peptides (10pg-10 μg) with 1% BSA (PBST-BSA)/well. After the plates were washed 6 times with PBST, the bound peptides were probed by HRP-SA Conjugate, diluted 1:10,000 to 1:20,000 in PBST-BSA, 0.1 ml/well for 45 minutes at room temperature. The target-bound synthetic peptides probed with HRP-SA were quantified by DAKO TMB one-step substrate system, followed by the addition of stop solution, HCl—H2SO4 mixture (0.1 ml/well) (1N HCl, 3N H2SO4). The results were analyzed by ELISA reader at OD450.
# (§4) The present invention identifies chemokine-binding peptides with biological activity. The binding specificities of the various peptides to the chemokines were determined by screening against BSA, Actin and Fibronectin-coated wells as negative controls in parallel experiments. The binding level of the peptides to the various chemokines, which reached at least two fold of the binding level to the control proteins, was considered a specific binding.
# (§5) The specific binding of the peptides was detected by screening methodology, using ELISA, as described in “Materials and Methods”, employing microplates coated with the various chemokines to be checked. The binding specificities of the various peptides to the various chemokines were determined by screening against BSA, Actin and Fibronectin-coated wells as negative controls in parallel experiments.
# (§6) Again, the specificity of the binding, either to one chemokine or more, was established by comparing binding level with the control binding level to non-related proteins, (shown in the Figure as a broken line).
# [2] = target: T2, MIG (Homo sapiens, UniProt Q07325); assay: as above; conditions: chemokine-coated wells, specific binding = at least two fold of binding to control proteins (BSA, Actin, Fibronectin)
# T2 construct: purchased PeproTech, Inc. 300-26
# T2 sequence (Q07325 23-125): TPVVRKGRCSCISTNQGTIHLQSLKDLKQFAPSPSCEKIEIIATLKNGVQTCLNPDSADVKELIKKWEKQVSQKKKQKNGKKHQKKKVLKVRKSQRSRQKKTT
# Method: as §1, §2, §3, §4, §5, §6
# [3] = target: T2, MIG; assay: Biovalidation: laminar flow assay, chemokine and VCAM-1 activated adhesion of T cells; type: cell-based; conditions: for Reduction of the activity of MIG: T cell adhesion under flow
# Method: 50 ml blood was added to 10 ml Dextran (Dextran T-500 6% w/v) in PBS (phosphate buffer saline), and 7 ml citrate buffer (25 g citrate, 8 g citric acid in 500 ml PBS). The solution was incubated for 30 min at 25° C. 10 ml Ficoll 1077 (Sigma) was added to the bottom of the tube. The tube was then centrifuged at 2,000 rpm for 30 min, at 18° C., (with the brake mode of the centrifuge off). The interphase was collected and washed twice with 8 ml PBS-5% FCS (fetal calf serum), followed by centrifugation at 1,400 rpm, for 5 min, at 18° C. The cells were re-suspended in PBS-5% FCS at a concentration less than 10^8/ml. 2 ml of the cell solution were applied and incubated for 45 min at 25° C. on a Perspex Nylon wool column, which was pre-soaked with PBS-5% FCS. Each column was washed with 8 ml PBS-5% FCS and the cells (T-cells and erythrocytes) were eluted by 50 ml of 5 mM EDTA in PBS. A red pellet was obtained by centrifugation at 1,400 rpm, at 4° C., for 5 min, with the brake on. In order to perform lysis of the erythrocytes, the red pellet was re-suspended in 5 ml lysis-buffer (155 mM NH4Cl, 10 mM KHCO3, 0.1 mM EDTA, X0.1PBS) for 4 min, followed by immediate addition of 50 ml of PBS-EDTA.
# Following centrifugation at 1,400 rpm, at 4° C., for 5 min with brake on, the pellet was washed again with 50 ml PBS-EDTA and re-centrifuged under the same conditions. A white pellet was obtained and re-suspended in RPMI/10% FCS/L-glutamine/sodium pyruvate/antibiotics at a concentration of 3^X10^6 cells/ml. The cells were incubated for 2 h at 37° C., followed by collection of the non-adherent cells. The cells were ready for use in experiments after overnight incubation at 37° C. […]
# Laminar flow assays were performed as follows. Polystyrene plates (B.D) were coated with soluble VCAM-1 at 10 μg/ml in the presence of 2 μg/ml HSA carrier. The plates were washed three times with PBS and blocked with HSA (20 μg/ml in PBS) for 2 hrs at room temperature. Alternatively, washed plates were coated with 10 μg/ml MIG chemokine in PBS for 30 min at room temperature, before being blocked with HSA. The plates were assembled as the lower wall of a parallel wall flow chamber and mounted on the stage of an inverted microscope. The peptide, as described previously, (10 μg/ml) was allowed to settle on the substrate coated chamber wall for 10 min, at 37° C. and then washed. T cells (5×10^6/ml, purity >98%) were suspended in binding buffer, perfused into the chamber and allowed to settle on the substrate coated chamber wall for 1 min, at 37° C. Flow was initiated and increased in 2 to 2.5 fold increments every 5 sec. generating controlled shear stresses on the wall. Cells were visualized in a 20× objective of an inverted phase-contrast Diaphot Microscope (Nikon, Japan) and photographed with a long integration LIS-700 CCD video camera (Applitech; Holon, Israel), connected to a video recorder (AG-6730 S-VHS, Panasonic, Japan). The number of adherent cells resisting detachment by the elevated shear forces was determined after each interval by analysis of videotaped cell images, and was expressed as the percent of originally settled cells. All adhesion experiments were performed at least three times on multiple test fields.
# [4] = target: T3, SDF-1α (Homo sapiens, UniProt P48061); assay: ELISA analysis of the synthetic chemokine-binding peptide; conditions: chemokine-coated wells, specific binding = at least two fold of binding to control proteins (BSA, Actin, Fibronectin)
# T3 construct: purchased PeproTech, Inc. 300-28A
# T3 sequence (P48061 22-89 limits assumed): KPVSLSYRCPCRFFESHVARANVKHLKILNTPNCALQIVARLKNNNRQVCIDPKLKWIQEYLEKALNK
# Method: as §1, §2, §3, §4, §5, §6
# [5] = tested on: chemokines MCP-1, SDF-1α, MIG, Eotaxin and IL-8; assay: ELISA binding to the panel of chemokines (chemokine not singled out); set-up: species or system human; conditions: five chemokines tested, control binding level = one fold
# Method: as §1, §2, §3
# The present invention identifies chemokine-binding peptides with biological activity. The binding specificities of the various peptides to the chemokines were determined by screening against BSA, Actin and Fibronectin-coated wells as negative controls in parallel experiments. […]
# The specific binding of the peptides was detected by screening methodology, using ELISA, as described in “Materials and Methods”, employing microplates coated with the various chemokines to be checked. The binding specificities of the various peptides to the various chemokines were determined by screening against BSA, Actin and Fibronectin-coated wells as negative controls in parallel experiments. […]
# [6] = target: T4, Eotaxin (Homo sapiens, UniProt P51671); assay: ELISA analysis of the synthetic chemokine-binding peptide; conditions: chemokine-coated wells, specific binding = at least two fold of binding to control proteins (BSA, Actin, Fibronectin)
# T4 construct: purchased PeproTech, Inc. 300-21
# T4 sequence (P51671 24-97): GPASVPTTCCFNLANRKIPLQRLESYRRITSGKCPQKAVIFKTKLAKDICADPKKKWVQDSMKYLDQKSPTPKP
# Method: as §1, §2, §3, §4, §5, §6
# [7] = target: T5, human IL-8 (Homo sapiens, UniProt P10145); assay: as above; conditions: chemokine-coated wells, specific binding = at least two fold of binding to control proteins (BSA, Actin, Fibronectin)
# T5 construct: human IL-8, (72 amino acids) (Cat. No. 200-08M); purchased PeproTech, Inc. 200-08M
# T5 sequence (P10145 28-99 limits assumed): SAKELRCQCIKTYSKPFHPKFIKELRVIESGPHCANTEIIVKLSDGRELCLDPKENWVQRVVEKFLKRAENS
# Method: as §1, §2, §3, §4, §5, §6
# [8] = target: T6, IL-8 (Homo sapiens, UniProt P10145); assay: Biovalidation: laminar flow assay, chemokine and VCAM-1 activated adhesion of T cells; type: cell-based; conditions: VCAM-1
# T6 construct: human IL-8, (72 amino acids) (Cat. No. 200-08M); purchased PeproTech, Inc. 200-08M
# T6 sequence (P10145 28-99): T5 sequence (P10145 28-99 limits assumed)
sequence,measurement,setting,value
ACHASLKHRC [BKT-P48],Bound chemokines (at least): MCP-1,[1],MCP-1
AHSLKSITNHGL [BKT-P44],Bound chemokines (at least): MCP-1,[1],MCP-1
CAHLSPHKC [BKT-P50],Bound chemokines (at least): MIG,[2],MIG
CDIPWRNEC [BKT-P10],Bound chemokines (at least): MIG,[2],does not bind
same,Percentage of arrested cells,"[3]; MIG plus peptide (FIG. 4), MIG alone about 25-30%, control = VCAM-1 alone",25%-30%
same,Reduction of the activity of MIG,[3]; VCAM-1,no influence on the activity of MIG
CHHNLSWEC [BKT-P56],Bound chemokines (at least): SDF-1α,[4],SDF-1α
CKESATYFC (ACKESATYFCGGGS-{K(biotin)-Gly}; disulfide 2-10 (inferred)) [BKT-P18],Binding to the various chemokines,[5],no binding to the various chemokines
ESDLTHALHWLG [BKT-P51],Bound chemokines (at least): MCP-1,[1],MCP-1
FSMDDPERVRSP [BKT-P9],Binding to the various chemokines,[5],bind specifically to a single chemokine; also recorded: specifically bind to one specific chemokine
GDFNSGHHTTTR [BKT-P27],Bound chemokines (at least): MCP-1,[1],MCP-1
GVHKHFYSRWLG [BKT-P33],Bound chemokines (at least): Eotaxin,[6],Eotaxin
HHFHLPKLRPPV [BKT-P45],Bound chemokines (at least): MCP-1,[1],MCP-1
same,Bound chemokines (at least): MIG,[2],MIG
same,Bound chemokines (at least): IL-8,[7],IL-8
same,Level of Antagonistic Effect,"[3]; Chemokine checked MIG, T cells, VCAM-1, peptide 10 μg/ml",+ (+ 20%)
same,Reduction of the activity of MIG,[3]; VCAM-1,about 20%
same,Level of Antagonistic Effect,"[8]; Chemokine checked IL-8, T cells, peptide 10 μg/ml",+++ (+++ 100%)
same,Abolishment of the activity of IL-8,[8]; T cell adhesion under flow,100%
HHTWDTRIWQAF [BKT-P55],Bound chemokines (at least): MCP-1,[1],MCP-1
HPTTPFIHMPNF (HPTTPIHMPNF) [BKT-P54],Bound chemokines (at least): MIG,[2],MIG
HSACHASLKHRC [BKT-P49],Bound chemokines (at least): MCP-1,[1],MCP-1
